Laboratory results: patent US20140031293A1

Target: purified human fibrinogen (human) (UniProt P02671)
Test: cell-based or functional assay

Chain of UniProt P02671 (P02671 20-629 limits assumed, chain 1 of 3): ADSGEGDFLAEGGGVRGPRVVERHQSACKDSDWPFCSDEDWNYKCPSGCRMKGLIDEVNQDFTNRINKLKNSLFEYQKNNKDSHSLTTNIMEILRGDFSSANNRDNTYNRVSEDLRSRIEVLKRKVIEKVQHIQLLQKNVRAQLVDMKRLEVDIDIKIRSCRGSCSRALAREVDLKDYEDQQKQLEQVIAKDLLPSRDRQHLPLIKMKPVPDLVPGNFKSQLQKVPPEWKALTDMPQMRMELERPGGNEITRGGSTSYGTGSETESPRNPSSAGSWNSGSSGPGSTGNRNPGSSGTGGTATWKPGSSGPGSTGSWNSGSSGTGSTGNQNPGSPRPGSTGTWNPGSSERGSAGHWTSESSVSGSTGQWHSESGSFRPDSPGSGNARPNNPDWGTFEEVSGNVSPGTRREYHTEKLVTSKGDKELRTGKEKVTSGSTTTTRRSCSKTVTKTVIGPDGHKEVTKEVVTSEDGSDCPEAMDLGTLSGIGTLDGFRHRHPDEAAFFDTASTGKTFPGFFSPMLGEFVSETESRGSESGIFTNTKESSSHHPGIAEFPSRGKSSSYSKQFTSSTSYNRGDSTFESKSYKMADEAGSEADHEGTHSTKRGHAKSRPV
Chain of UniProt P02671 (P02675 31-491 limits assumed, chain 2 of 3, further chain): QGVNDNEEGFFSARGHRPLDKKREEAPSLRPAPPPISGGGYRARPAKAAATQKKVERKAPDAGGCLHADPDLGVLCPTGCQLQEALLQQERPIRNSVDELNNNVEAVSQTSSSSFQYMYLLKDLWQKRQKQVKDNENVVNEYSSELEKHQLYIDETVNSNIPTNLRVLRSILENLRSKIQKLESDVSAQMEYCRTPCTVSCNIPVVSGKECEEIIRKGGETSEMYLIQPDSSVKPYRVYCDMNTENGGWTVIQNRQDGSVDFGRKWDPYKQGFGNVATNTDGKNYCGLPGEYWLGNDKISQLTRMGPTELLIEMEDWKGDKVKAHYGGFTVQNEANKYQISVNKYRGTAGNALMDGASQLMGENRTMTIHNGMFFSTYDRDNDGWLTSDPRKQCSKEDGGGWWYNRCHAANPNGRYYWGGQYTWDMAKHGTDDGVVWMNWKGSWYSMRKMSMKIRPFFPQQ
Chain of UniProt P02671 (P02679 other isoform, or with tags, fused parts or gaps limits assumed, chain 3 of 3, further chain): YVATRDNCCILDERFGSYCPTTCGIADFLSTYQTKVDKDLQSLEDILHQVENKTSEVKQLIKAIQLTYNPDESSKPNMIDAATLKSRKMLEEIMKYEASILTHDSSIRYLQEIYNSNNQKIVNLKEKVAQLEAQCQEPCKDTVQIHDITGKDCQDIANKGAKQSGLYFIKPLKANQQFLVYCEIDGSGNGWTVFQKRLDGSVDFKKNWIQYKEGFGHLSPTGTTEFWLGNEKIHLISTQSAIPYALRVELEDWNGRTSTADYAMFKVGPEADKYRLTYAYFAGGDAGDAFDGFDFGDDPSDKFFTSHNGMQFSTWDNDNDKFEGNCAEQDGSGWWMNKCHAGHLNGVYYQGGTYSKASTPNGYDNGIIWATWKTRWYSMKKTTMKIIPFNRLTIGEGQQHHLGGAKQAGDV

Clotting activity (clot formation, Sigma Amelung KC4 coagulometer; 30 uL sample at 0.5 mg/ml added to 100 uL fibrinogen at 3 mg/ml): < 6 s
Substance: PeproStat: fibrinogen-binding peptides of sequence GPRPG (GPRPG-PEG12-maleimide) conjugated to human serum albumin thiolated with 2-iminothiolane (from UniProt P02768 25-609)
